Results from patent US20130230554A1.

Molecular target: SVGmu, modified Sindbis virus envelope glycoprotein (SEQ ID NO: 11) (Sindbis virus) (UniProt P03316)
Experiment: confocal imaging; anti-HA-biotin plus Cy5-streptavidin staining of GFP-vpr-labeled lentiviral particles on coverslips

“anti-HA-biotin antibody (Miltenyi Biotec)” gave a fraction of GFP-labeled particles stained for SVGmu of over 90%.
